This note sets out measurements from patent US20240049668A1 (VILMORIN AND CIE, published 2024).

Where a chain is given by its changes, count along the chain named. Numbers in names are those of the source. Where two headings read alike, the source gives them in different places.

Common to all, as to test: cell-based or functional assay
In experiment [1] the target is T1, Movement Protein of ToBRFV (Tomato Brown Rugose Fruit Virus …, UniProt A0A0S2SZW1 1-266).
T1 sequence: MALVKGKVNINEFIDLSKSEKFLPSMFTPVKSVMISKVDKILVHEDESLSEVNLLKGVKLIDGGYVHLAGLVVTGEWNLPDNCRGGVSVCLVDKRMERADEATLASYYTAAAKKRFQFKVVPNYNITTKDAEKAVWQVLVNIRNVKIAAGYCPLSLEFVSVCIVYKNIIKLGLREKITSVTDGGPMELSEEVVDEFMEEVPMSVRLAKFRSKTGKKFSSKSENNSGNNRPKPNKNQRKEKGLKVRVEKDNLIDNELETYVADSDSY

Experiment [2] deals with T1, Movement Protein of ToBRFV. The source holds these as a separate data set.
Experiment [3] concerns the target T1, Movement Protein of ToBRFV. This is another data set of the same source.
For experiment [4], the target named is T1, Movement Protein of ToBRFV. The source holds these as a separate data set.
Experiment [5] has as its target T1, Movement Protein of ToBRFV. This is another data set of the same source.
Experiment [6] deals with T1, Movement Protein of ToBRFV. This is another data set of the same source.
Experiment [7] addresses T1, Movement Protein of ToBRFV. This is another data set of the same source.

B1: TM2-14-25 encoded by Tm2-14-25 (receptor)
chain: MAEILLTSVINKSVEIAGNLLIQEGKRLYWLKEDIDWLQREMRHIRSYVDNAKAKEAGGDSRVKNLLKDIQELAGDVEDLLDDFLPKIQQSNKFNYCLKRSSFADEFAMEIEKIKRRVVDIDRIRKTYNIIDTDNNNDDCVLLDRRRLFLHADETEIIGLDDDFNMLQAKLLNQDLHYGVVSIVGMPGLGKTTLAKKLYRLIRDQFECSGLVYVSQQPRASEILLDIAKQIGLTEQKMKENLEDNLRSLLKIKRYVILLDDIWDVEIWDDLKLVLPECDSKVGSRMIITSRNSNVGRYIGGESSLHALQPLESEKSFELFTKKIFNFDDNNSWANASPDLVNIGRNIVGRCGGIPLAIVVTAGMLRARERTEHAWNRVLESMGHKVQDGCAKVLALSYNDLPIASRPCFLYFGLYPEDHEIRAFDLINMWIAEKFIVVNSGNRREAEDLAEDVLNDLVSRNLIQLAKRTYNGRISSCRIHDLLHSLCVDLAKESNFFHTAHDAFGDPGNVARLRRITFYSDNVMIEFFRSNPKLEKLRVLFCFAKDPSIFSHMAYFDFKLLHTLVVVMSQSFQAYVTIPSKFGNMTCLRYLRLEGNICGKLPNSIVKLTRLETIDIDRRSLIQPPSGVWESKHLRHLCYRDYGQACNSCFSISSLYPNIYSLHPNNLQTLMWIPDKFFEPRLLHRLINLRKLGILGVSNSTVKMLSIFSPVLKALEVLKLSFSSDPSEQIKLSSYPHIAKLHLNVNRTMALNSQSFPPNLIKLTLAYFSVDRYILAVLKTFPKLRKLKMFICKYNEEKMDLSGEANGYSFPQLEVLHIHSPNGLSEVTCTDDVSMPKLKKLLLTGFHRRISLSERLKKLSK
B1: the “HR to MP Rugose” value was determined as 4 HR scale 0-4 in experiment [1] and 3 HR scale 0-4 in experiment [3]. The “HR when expressed with MP Rugose” value in experiment [2] was 4 HR scale 0-4.

B2: TM-2-2 variant pJL 511_12 (767 D, 848 R) (receptor)
chain: B1 chain with L655F, Y767D
For the molecule B2, in experiment [4], the “HR to MP Rugose” value worked out at 0 HR scale 0-4.

B3: TM-2-2 variant pJL 511_8 (767 D, 769 A, 848 R) (receptor)
chain: B1 chain with L655F, Y767D, S769A
For the molecule B3, in experiment [4], the “HR to MP Rugose” value stood at 0 HR scale 0-4.

B4: TM2-467 encoded by Tm2-467 (receptor)
chain: B1 chain with L655F
Consider B4, for which the “HR when expressed with MP Rugose” value in experiment [2] was determined as 4 HR scale 0-4.

B5: TM-2-2 protein (product of the Tm-2-2 gene) (receptor)
chain: B1 chain with L655F, R848C
On to B5, for which the “HR to MP Rugose” value in experiment [1], in experiment [6], in experiment [3] and in experiment [7] was < 1 HR scale 0-4 throughout. Also, the “HR when expressed with MP Rugose” value in experiment [5] and in experiment [2] was < 1 HR scale 0-4 throughout.

B6: TM-2-2 variant pJL 466 (F655L) (receptor)
chain: B1 chain with R848C
As to B6, in experiment [2], the “HR when expressed with MP Rugose” value was < 1 HR scale 0-4.
